Positions count from the first letter of the chain named. Values joined by “and” are separate entries in the source; they are usually repeats but may differ in a detail not shown here. Equal values may be shown once.
Assays:
[1] = molecular target: Bio-Peptide-2 (human cytomegalovirus (4D variant)); test: ELISA (FIG. 5)
[2] = molecular target: Peptide 3 (human cytomegalovirus); test: HuProt array, 0.1 µg/ml
[3] = molecular target: Peptide-N-BSA (human cytomegalovirus); test: ELISA, Peptide-N-BSA coated
[4] = molecular target: Bio-Peptide-2 (human cytomegalovirus (4D variant)); test: ELISA, Bio-Peptide-2 coated

B1: US28-13-5G6-1D3 (antibody)
heavy: EVKLVESGGGLVQPGGSLRLACATSGFTFTDYYMSWVRQPPGKALEWLGFIRSKANGYTTEYSASVKGRFTISRDNSQSILYLQMNTLRSEDSATYYCARDERRTAWLAYWGQGTLVTVSAAKTTPPSVYPLAPGSAAQTNSMVTLGCLVKGYFPEPVTVTWNSGSLSSGVHTFPAVLQSDLYTLSSSVTVPSSTWPSETVTCNVAHPASSTKVDKKIVPRDCGCKPCICTVPEVSSVFIFPPKPKDVLTITLTPKVTCVVVDISKDDPEVQFSWFVDDVEVHTAQTQPREEQFNSTFRSVSELPIMHQDWLNGKEFKCRVNSAAFPAPIEKTISKTKGRPKAPQVYTIPPPKEQMAKDKVSLTCMITDFFPEDITVEWQWNGQPAENYKNTQPIMDTDGSYFIYSKLNVQKSNWEAGNTFTCSVLHEGLHNHHTEKSLSHSPGK
light: DVLMTQTPLSLPVSLGDQASISCRSSQSIVHSNGNTYLDWYLQKPGQSPKLLIYKVSNRFSGVPDRFSGSGSGTDFTLKISRVEAEDLGVYYCFQGSHVPTWTFGGGTKLEIKRADAAPTVSIFPPSSEQLTSGGASVVCFLNNFYPKDINVKWKIDGSERQNGVLNSWTDQDSKDSTYSMSSTLTLTKDEYERHNSYTCEATHKTSTSPIVKSFNRNEC
Question: How did the fold binding over BSA control [1] turn out when B1 was run?
Answer: Its fold binding over BSA control is 27 fold and 28 fold.

B2: US28-4-7B1F3 (antibody, mouse IgG1, kappa)
heavy: EVQLQQSGAELAKPGASVKMSCKASGYTFTNYWMHWVKQRPGQGLEWIGYVNPRTGYTEYNQKFKDKATLTADKSSRTAYMQLSSLTSEDSAVYSCARILNGTGFAYWGQGTLVTVSAAKTTPPSVYPLAPGSAAQTNSMVTLGCLVKGYFPEPVTVTWNSGSLSSGVHTFPAVLQSDLYTLSSSVTVPSSTWPSETVTCNVAHPASSTKVDKKIVPRDCGCKPCICTVPEVSSVFIFPPKPKDVLTITLTPKVTCVVVDISKDDPEVQFSWFVDDVEVHTAQTQPREEQFNSTFRSVSELPIMHQDWLNGKEFKCRVNSAAFPAPIEKTISKTKGRPKAPQVYTIPPPKEQMAKDKVSLTCMITDFFPEDITVEWQWNGQPAENYKNTQPIMDTDGSYFIYSKLNVQKSNWEAGNTFTCSVLHEGLHNHHTEKSLSHSPGK
light: DIVLTQSPSSLTVSVGEKFTMSCKSSQSLLYSSNQKNYLAWYQQKPGQSPKLLIYWASTRESGVPDRFTGSGSGTDFTLAISSVKPEDLAIYYCQQYYSFPLTFGAGTKLEIKRADAAPTVSIFPPSSEQLTSGGASVVCFLNNFYPKDINVKWKIDGSERQNGVLNSWTDQDSKDSTYSMSSTLTLTKDEYERHNSYTCEATHKTSTSPIVKSFNRNEC
Question: How did the F635 [2] turn out when B2 was run?
Answer: Its F635 is 50000 AU.

Question: And the S Score [2]?
Answer: Its S Score is 116.

Question: And the Z Score [2]?
Answer: Its Z Score is 145.

Question: What about the absorbance [3] of the same binder?
Answer: The absorbance was 2.8.

B3: US28-14-4E4-1E8 (antibody, mouse IgG1, kappa)
heavy: not shown
light: QIVLSQSPTIMSASPGEKVTMTCSASSSVSYMHWYQQKSGTSPKRWIYDSSKLASGVPARFSGSGSGTSYSLTISSMEAEDAATYYCQQWTSNPPITFGAGTKLELKRADAAPTVSIFPPSSEQLTSGGASVVCFLNNFYPKDINVKWKIDGSERQNGVLNSWTDQDSKDSTYSMSSTLTLTKDEYERHNSYTCEATHKTSTSPIVKSFNRNEC
Question: With B3 as the binder, how does the absorbance [4] read?
Answer: Its absorbance is 2.87.

B4: US28-13-1C10-1C10 (antibody, mouse IgG1, kappa)
heavy: EVKLVESGGVLVKPGGSLKFSCAASGFTFSSHALSWVRQTPEKRLEWVASISSRGRTYYPDSVKGRFTVSRDNARNILYLQVSSLRSEDTAMYYCTRGGTHYSYGNGFDFWGQGTTLTVSSAKTTPPSVYPLAPGSAAQTNSMVTLGCLVKGYFPEPVTVTWNSGSLSSGVHTFPAVLQSDLYTLSSSVTVPSSTWPSETVTCNVAHPASSTKVDKKIVPRDCGCKPCICTVPEVSSVFIFPPKPKDVLTITLTPKVTCVVVDISKDDPEVQFSWFVDDVEVHTAQTQPREEQFNSTFRSVSELPIMHQDWLNGKEFKCRVNSAAFPAPIEKTISKTKGRPKAPQVYTIPPPKEQMAKDKVSLTCMITDFFPEDITVEWQWNGQPAENYKNTQPIMDTDGSYFIYSKLNVQKSNWEAGNTFTCSVLHEGLHNHHTEKSLSHSPGK
light: B3 light with S5T, T9A, A25V, S50T, S76T, T91S, S92N
Question: With B4 as the binder, how does the absorbance [4] read?
Answer: Its absorbance is 3.03.

B5: US28-13-1C10-1G9 (antibody, mouse IgG1, kappa)
heavy: not shown
light: B3 light with S5T, T9A, S50T, T91S, I96L
Question: B5 was tested. Which absorbance [4] did it give?
Answer: The absorbance was 3.06.

B6: US28-13-1H3-1A10 (antibody, mouse IgG1, kappa)
heavy: B4 heavy with F29L
light: B3 light with S5T, T9A, A25V, S50T, S76T, T91S, S92N
Question: How did the absorbance [4] turn out when B6 was run?
Answer: The absorbance was 2.84.

From patent US20250296984A1, “THERAPEUTIC AND DIAGNOSTIC AGENTS AND USES THEREOF” (priority 2022, published 2025)
